Source: paper doi:10.1101/2022.02.25.482027 (bioRxiv, 2022)
Positions count from the first letter of the chain named.

Key:
Assay in all cases: co-sedimentation
FtsA(Y375A) = molecular target: T1, FtsA(Y375A) (E. coli, UniProt P0ABH0 1-420, Y375A)
T1 sequence: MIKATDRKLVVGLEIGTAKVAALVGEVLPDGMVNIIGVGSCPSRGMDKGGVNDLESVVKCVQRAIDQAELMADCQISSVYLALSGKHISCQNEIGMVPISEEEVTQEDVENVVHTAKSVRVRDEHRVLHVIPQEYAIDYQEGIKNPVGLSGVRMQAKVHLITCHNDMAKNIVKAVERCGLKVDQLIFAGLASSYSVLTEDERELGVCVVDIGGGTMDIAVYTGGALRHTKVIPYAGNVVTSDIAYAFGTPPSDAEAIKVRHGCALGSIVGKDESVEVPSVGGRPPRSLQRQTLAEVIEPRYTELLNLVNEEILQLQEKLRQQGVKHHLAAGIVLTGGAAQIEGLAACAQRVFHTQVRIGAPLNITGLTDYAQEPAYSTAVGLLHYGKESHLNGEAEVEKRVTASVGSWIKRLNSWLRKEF

FtsA(A188V) = molecular target: T2, FtsA(A188V) (E. coli, UniProt P0ABH0 1-420, A188V)
T2 sequence: T1 sequence with A188V, A375Y

FtsA(E14R) = molecular target: T3, FtsA(E14R) (E. coli, UniProt P0ABH0 1-420, E14R)
T3 sequence: T1 sequence with E14R, A375Y

FtsA(S84L) = molecular target: T4, FtsA(S84L) (E. coli, UniProt P0ABH0 1-420, S84L)
T4 sequence: T1 sequence with S84L, A375Y

Measured: binding result

B1: FtsZ (natural protein)
chain: MFEPMELTNDAVIKVIGVGGGGGNAVEHMVRERIEGVEFFAVNTDAQALRKTAVGQTIQIGSGITKGLGAGANPEVGRNAADEDRDALRAALEGADMVFIAAGMGGGTGTGAAPVVAEVAKDLGILTVAVVTKPFNFEGKKRMAFAEQGITELSKHVDSLITIPNDKLLKVLGRGISLLDAFGAANDVLKGAVQGIAELITRPGLMNVDFADVRTVMSEMGYAMMGSGVASGEDRAEEAAEMAISSPLLEDIDLSGARGVLVNITAGFDLRLDEFETVGNTIRAFASDNATVVIGTSLDPDMNDELRVTVVATGIGMDKRPEITLVTNKQVQQPVMDRYQQHGMAPLTQEQKPVAKVVNDNAPQTAKEPDYLDIPAFLRKQAD
binds: all assays above
